Results on three molecules are retold here after patent publication US20230312724A1 (KADMON, published 2023).

The target of experiment [1] is T1, mB7-H4 (soluble mouse B7-H4, construct not named) (mouse, UniProt Q7TSP5 25-257, limits assumed).
T1 sequence: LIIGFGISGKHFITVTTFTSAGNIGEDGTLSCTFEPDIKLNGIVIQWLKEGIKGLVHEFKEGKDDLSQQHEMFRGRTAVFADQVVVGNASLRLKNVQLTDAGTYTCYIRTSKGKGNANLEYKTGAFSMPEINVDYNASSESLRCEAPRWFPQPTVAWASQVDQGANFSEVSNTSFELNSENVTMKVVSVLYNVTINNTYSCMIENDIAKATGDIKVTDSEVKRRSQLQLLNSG
Briefly: SPR (Biacore); values equal to Table 11.

The target of experiment [2] is T2, mouse B7-H4 expressed on cells (mouse, UniProt Q7TSP5 25-257).
T2 construct: also called cellular mB7-H4; mB7-H4/CT26
T2 sequence: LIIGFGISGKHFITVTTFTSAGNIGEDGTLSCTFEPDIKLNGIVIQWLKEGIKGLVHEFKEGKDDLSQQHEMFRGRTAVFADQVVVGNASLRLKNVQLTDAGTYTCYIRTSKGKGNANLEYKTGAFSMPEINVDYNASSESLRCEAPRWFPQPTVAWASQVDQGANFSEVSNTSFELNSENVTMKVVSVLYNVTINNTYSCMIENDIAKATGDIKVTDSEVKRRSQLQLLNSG
Briefly: flow cytometry, mB7-H4/CT26 cells.

Experiment [3] addresses T3, hB7-H4 (soluble human B7-H4, construct not named) (human, UniProt Q7Z7D3 25-259, limits assumed).
T3 construct: also called soluble hB7-H4
T3 sequence: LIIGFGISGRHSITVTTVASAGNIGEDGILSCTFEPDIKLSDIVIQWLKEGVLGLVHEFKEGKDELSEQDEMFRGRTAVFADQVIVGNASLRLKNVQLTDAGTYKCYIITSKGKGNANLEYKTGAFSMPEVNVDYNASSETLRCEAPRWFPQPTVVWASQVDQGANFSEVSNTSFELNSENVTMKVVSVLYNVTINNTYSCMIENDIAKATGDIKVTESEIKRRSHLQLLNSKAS
Description: SPR (Biacore).

Experiment [4] deals with T4, IgV domain of mouse B7-H4-Fc (mouse; human).
T4 construct: also called mB7-H4 IgV domain
Briefly: ELISA, coated mB7-H4 IgV domain.

In experiment [5] the target is T5, human B7-H4 expressed on cells (human, UniProt Q7Z7D3 25-282).
T5 construct: Transfected CHO cells or tumor cell lines that carry hB7-H4; also called cellular hB7-H4
T5 sequence: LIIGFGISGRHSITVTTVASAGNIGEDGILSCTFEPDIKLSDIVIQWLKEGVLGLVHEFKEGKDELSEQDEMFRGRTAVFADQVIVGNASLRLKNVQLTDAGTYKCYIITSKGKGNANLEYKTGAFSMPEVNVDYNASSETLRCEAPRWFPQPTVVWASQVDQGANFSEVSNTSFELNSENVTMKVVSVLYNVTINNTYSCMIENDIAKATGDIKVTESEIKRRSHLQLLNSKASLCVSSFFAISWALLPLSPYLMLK
Briefly: flow cytometry, SK-BR-3 cells.

The target of experiment [6] is T6, IgC domain of human B7-H4-Fc (human).
T6 construct: also called hB7-H4 IgC domain
Briefly: ELISA, coated hB7-H4 IgC domain.

Experiment [7] addresses T1, mB7-H4 (soluble mouse B7-H4, construct …). Description: ELISA, mB7-H4. The procedure:
(§1) About 1-2 μg/ml of human or mouse B7-H4-Fc (or his-tagged) was immobilized on ELISA plates (Immuno 2HB, Thermo scientific, cat #3455) at 4° C. overnight. After blocking the plates with 3% PBS+milk, serial diluted antibodies were added to the blocked plates and incubated at RT for 1-1.5 h. After washing the plates with PBS-T (0.05%), horse radish peroxidase (HRP)-conjugated antibody targeting the hFab was added to the plate. Signals were developed by adding 3,3′,5,5′-Tetramethylbenzidine (TMB (followed 1N of H₂SO₄ to stop the reaction. The OD at 450 nm was read by ELISA plate reader (Infinite M1000 from TECAN). GraphPad from Prism was used to plot OD450 vs. antibody concentration curve and to calculate the EC50 values.

Experiment [8] has as its target T6, IgC domain of human B7-H4-Fc. Description: ELISA, coated hB7-H4 IgC domain. Here is the method:
ELISA experiments were performed to determine binding to hB7-H4-Fc (FIG. 5A), hB7-H4-his (FIG. 5B), mB7-H4-Fc domain (FIG. 5C), hB7-H4 IgV domain (FIG. 5D), and hB7-H4 IgC domain (FIG. 5E). Flow cytrometry experiments were performed to determine binding to CHO cells expressing hB7-H4 (FIG. 5F) or mB7-H4 (FIG. 5G). […] A cross-reactive IgV binding antibody and an IgC binding antibody were used as controls.
as §1
This is another data set of the same source.

Experiment [9] deals with T7, IgV domain of human B7-H4-Fc (human).
T7 construct: also called hB7-H4 IgV domain
Description: ELISA, coated hB7-H4 IgV domain.

Experiment [10] concerns the target T3, hB7-H4 (soluble human B7-H4, construct …). Briefly: ELISA, hB7-H4. The procedure:
as §1

Experiment [11] deals with T8, mouse B7-H4-Fc (mouse; human).
T8 construct: also called mB7-H4-Fc; mB7-H4-hFc
Description: ELISA, coated mB7-H4-Fc. An outline of the steps: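 OD450 was plotted against antibody concentration to derive EC50. Plates carried ~1-2 μg/ml human or mouse B7-H4-Fc (or his-tagged) coated overnight at 4° C; antibodies in serial dilution incubated 1-1.5 h at RT, with HRP-anti-hFab/TMB detection.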

Experiment [12] deals with T3, hB7-H4 (soluble human B7-H4, construct …). Description: SPR (Biacore). The procedure:
(§2) Surface plasmon resonance experiments were performed using a Biacore T200 instrument equipped with CM5 sensor chips. The system was equilibrated in running buffer HBS-EP pH 7.4. The ligands were immobilized using amine-coupling chemistry. The surfaces of flow cells one through four were activated for 5 min using an amine coupling kit at a flow rate of […]. The ligands (human B7-H4-Fc, human B7-H4-hism and mouse B7-H4-Fc; at a concentration of 5 μg/ml in 10 mM sodium acetate, pH 5.0) were immobilized at a density of 50-100 RU on flow cell 2, 3, 4 respectively. Flow cell 1 was left blank to serve as a reference surface. All flow cell surfaces were blocked with a 5 min injection of 1 M ethanolamine, pH 8.0. To collect kinetic binding data, the respective analyte (diluted in 1×HBS-EP buffer, pH 7.4) was injected over the four flow cells at concentrations of 100 nM to 0.1 nM at a flow rate of […] and at a temperature of 25° C. The protein complex was allowed to associate and dissociate for 180 seconds and 1000 or 1200 seconds, respectively. The surfaces were regenerated with a 30 second injection of 1.5 M NaCl/0.05 M NaOH. The data were fit to a simple 1:1 interaction model using the Langmuir fit option available within the Biaevaluaton software
The source holds these as a separate data set.

Experiment [13] shares this target. Briefly: ELISA, hB7-H4. Here is the method:
as §1
The source holds these as a separate data set.

Experiment [14] deals with T6, IgC domain of human B7-H4-Fc. Description: ELISA, coated hB7-H4 IgC domain (title on the sheet: IgC domain of hB7H4). The procedure:
as §1

Experiment [15] has as its target T2, mouse B7-H4 expressed on cells. Description: flow cytometry, CHO cells expressing mB7-H4.
Experiment [16] addresses T9, IgC domain of mouse B7-H4-Fc (mouse; human).
T9 construct: also called mB7-H4 IgC domain
Briefly: ELISA, coated mB7-H4 IgC domain (title on the sheet: IgC domain of mB7H4). Here is the method:
as §1

The target of experiment [17] is T4, IgV domain of mouse B7-H4-Fc. Briefly: ELISA, coated mB7-H4 IgV domain. Here is the method:
as §1
This is another data set of the same source.

For experiment [18], the target named is T5, human B7-H4 expressed on cells. Description: flow cytometry, SK-BR-3 cells. Here is the method:
(§3) Cells were harvested, washed once, and then re-suspended to the concentration of 1×10⁶ cells/ml in ice cold FACS Buffer. 25 μl of cell suspension was added to each well of a 96-well round-bottom microliter plate. Serially diluted antibodies or fusion proteins were added to each well and incubated for 1 hour at 4° C. Cells were washed three times by centrifugation at 1500 rpm for 5 minutes, and then stained with secondary antibody (1:200 dilution) for 30 min at 4° C. in the dark. Cells were washed once, re-suspended in 100 μl PBS buffer and then analyzed using Guava Flow Cytometry EasyCyte system.
The source holds these as a separate data set.

Experiment [19] addresses T1, mB7-H4 (soluble mouse B7-H4, construct …). Briefly: ELISA and SPR (Biacore). Here is the method: as §1, §2
For experiment [20], the target named is T8, mouse B7-H4-Fc. Briefly: ELISA, coated mB7-H4-Fc. The procedure:
(§4) ELISA experiments were performed to determine binding to hB7-H4-Fc (FIG. 3A), hB7-H4-his (FIG. 3B), mB7-H4-Fc (FIG. 3C), and hB7-H4 IgV domain (FIG. 3D). Flow cytometry experiments were performed to determine binding to CHO cells expressing hB7-H4 (FIG. 3E) or mB7-H4 (FIG. 3F).
as §1
The source holds these as a separate data set.

Experiment [21] concerns the target T2, mouse B7-H4 expressed on cells. Briefly: flow cytometry, CHO cells expressing mB7-H4. Here is the method: as §4, §3
The source holds these as a separate data set.

The target in the next experiment is T10, human B7-H4-Fc (human).
T10 construct: also called hB7-H4-Fc; hB7-H4 Fc
Briefly: SPR (Biacore). The procedure:
as §2
(§5) The kinetics for binding of the different antibodies to their targets were examined using Biacore analysis.

The next experiment deals with T11, human B7-H4-his (human, UniProt Q7Z7D3 25-259).
T11 construct: also called hB7-H4-his; hB7-H4 his; not shown: his tag
T11 sequence: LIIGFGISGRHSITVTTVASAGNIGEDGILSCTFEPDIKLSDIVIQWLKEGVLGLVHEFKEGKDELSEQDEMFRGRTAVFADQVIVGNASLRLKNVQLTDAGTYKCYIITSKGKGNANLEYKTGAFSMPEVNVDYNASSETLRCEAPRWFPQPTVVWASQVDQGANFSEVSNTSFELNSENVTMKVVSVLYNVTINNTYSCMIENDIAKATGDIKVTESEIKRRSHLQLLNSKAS
Briefly: SPR (Biacore). The procedure:
as §2, §5

The next experiment deals with T12, mouse B7-H4-his (mouse, UniProt Q7TSP5 25-257).
T12 construct: also called mB7-H4-his; mB7-H4-His; not shown: his tag
T12 sequence: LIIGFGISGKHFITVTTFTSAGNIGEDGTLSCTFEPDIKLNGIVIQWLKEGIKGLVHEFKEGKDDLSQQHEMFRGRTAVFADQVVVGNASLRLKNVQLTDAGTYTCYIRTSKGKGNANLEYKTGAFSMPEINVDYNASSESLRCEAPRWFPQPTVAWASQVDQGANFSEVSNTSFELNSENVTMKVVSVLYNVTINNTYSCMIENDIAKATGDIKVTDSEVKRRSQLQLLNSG
Briefly: ELISA, coated mB7-H4-his. The procedure: as §1

Read-outs that look alike come from different tables or passages of the source.

T6 sequence (chain, as listed by the source): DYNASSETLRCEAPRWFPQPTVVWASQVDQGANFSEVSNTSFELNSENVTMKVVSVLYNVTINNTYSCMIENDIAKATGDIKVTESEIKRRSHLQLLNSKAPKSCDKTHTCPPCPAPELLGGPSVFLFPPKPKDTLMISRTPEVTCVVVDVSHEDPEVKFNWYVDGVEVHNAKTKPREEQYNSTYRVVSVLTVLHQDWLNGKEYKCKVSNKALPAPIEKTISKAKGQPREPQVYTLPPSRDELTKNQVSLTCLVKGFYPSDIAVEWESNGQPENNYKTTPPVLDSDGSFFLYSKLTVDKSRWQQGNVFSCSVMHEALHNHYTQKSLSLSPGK
T4 sequence (chain, as listed by the source): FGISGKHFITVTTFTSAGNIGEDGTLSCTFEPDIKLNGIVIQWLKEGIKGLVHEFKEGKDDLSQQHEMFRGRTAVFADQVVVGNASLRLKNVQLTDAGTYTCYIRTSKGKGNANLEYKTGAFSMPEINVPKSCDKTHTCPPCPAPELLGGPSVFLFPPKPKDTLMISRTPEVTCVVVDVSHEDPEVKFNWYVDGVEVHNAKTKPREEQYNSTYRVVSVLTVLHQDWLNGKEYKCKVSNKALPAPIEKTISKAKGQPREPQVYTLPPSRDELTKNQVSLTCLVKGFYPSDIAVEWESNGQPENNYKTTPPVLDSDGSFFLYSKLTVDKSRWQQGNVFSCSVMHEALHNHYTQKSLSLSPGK
T8 sequence (chain, as listed by the source): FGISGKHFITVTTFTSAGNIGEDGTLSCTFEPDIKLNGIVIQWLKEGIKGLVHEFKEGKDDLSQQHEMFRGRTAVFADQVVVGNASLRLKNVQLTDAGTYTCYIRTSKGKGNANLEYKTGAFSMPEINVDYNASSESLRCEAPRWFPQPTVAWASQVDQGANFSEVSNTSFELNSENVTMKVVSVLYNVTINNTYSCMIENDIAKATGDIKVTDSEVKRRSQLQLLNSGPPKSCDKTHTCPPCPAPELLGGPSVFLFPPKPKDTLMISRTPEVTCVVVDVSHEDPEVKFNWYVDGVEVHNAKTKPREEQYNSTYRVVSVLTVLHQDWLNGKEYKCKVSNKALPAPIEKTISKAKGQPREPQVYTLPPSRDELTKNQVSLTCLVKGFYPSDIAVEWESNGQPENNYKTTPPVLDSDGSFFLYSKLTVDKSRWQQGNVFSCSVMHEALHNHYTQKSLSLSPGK
T9 sequence (chain, as listed by the source): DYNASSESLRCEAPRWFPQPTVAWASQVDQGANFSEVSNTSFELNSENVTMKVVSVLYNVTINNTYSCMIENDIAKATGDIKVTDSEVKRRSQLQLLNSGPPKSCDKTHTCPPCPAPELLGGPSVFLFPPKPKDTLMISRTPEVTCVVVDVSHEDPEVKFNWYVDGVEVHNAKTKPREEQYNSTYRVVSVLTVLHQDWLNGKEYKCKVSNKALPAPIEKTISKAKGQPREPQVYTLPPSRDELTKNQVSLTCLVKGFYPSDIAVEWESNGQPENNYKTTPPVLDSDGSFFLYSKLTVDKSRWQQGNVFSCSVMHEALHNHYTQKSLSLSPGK
T7 sequence (chain, as listed by the source): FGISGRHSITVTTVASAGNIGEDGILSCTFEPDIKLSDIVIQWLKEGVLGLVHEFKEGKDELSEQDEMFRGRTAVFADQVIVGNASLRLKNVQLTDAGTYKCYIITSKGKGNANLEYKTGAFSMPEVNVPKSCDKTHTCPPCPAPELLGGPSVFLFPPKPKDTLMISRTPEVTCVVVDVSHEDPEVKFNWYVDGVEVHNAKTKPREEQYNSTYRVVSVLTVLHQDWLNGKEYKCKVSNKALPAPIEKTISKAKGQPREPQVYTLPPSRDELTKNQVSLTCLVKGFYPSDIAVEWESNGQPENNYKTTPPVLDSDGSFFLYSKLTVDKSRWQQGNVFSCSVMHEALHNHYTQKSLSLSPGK
T10 sequence (chain, as listed by the source): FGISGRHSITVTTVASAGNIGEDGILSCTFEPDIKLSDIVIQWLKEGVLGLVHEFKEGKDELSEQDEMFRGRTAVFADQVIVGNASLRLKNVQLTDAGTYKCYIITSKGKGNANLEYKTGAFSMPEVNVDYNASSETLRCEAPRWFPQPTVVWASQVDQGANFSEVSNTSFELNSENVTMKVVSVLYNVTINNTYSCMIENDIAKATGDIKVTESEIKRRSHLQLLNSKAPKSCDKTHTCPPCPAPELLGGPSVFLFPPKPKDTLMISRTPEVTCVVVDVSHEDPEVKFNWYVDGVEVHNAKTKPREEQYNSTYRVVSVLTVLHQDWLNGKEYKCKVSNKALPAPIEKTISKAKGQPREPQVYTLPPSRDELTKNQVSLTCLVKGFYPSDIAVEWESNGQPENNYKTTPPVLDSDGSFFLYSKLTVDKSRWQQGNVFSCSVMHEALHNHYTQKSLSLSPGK

B1: Control antibody 2 (antibody 6H3 described in U.S. Pat. No. 9,574,000) (antibody, V domains shown)
VH: EVQLQQSGPVLVKPGTSVKMSCKASGYTFTDYYMNWVKQSHGKSLEWIGVINPYNGDTTYNQKFKGKATLTVDKSSSTAYMEVNSLTFEDSAVYYCARYPESTYWGQGTLVTVSA
VL: DVVMTQTPLSLPVSLGDQASISCRSSQSLVHINGNTYLHWYLQKPGQSPKVLIYKVSNRFSGVPDRFSGSGSGTDFTLKISRVEAEDLGVYFCSQSTHVPLTFGAGTKLELK
notes: also called (+) control Ab2; Ab2
As to B1, the Kd in [1] and in experiment [3] was 0.626 nM in each case. Moreover, the EC50 in experiment [2] is 18.4 nM; in experiment [5] it was 3.37 nM; in experiment [7] it was 0.289 nM; in experiment [10] it was 0.222 nM. Also, the binding result in experiment [4] was “no binding (tested: log 1 nM (10 nM))”; in [9], “no binding (tested: log 1 nM (10 nM))”; in the experiment with mouse B7-H4-Fc [11], “binds”. Further, the “EC50 (read off the curve)” value is around 0.2 nM in experiment [6] and around 0.01 µg/mL in experiment [8].

B2: 3F2/49A2 (antibody, human IgG1, V domains shown)
VH: QVQLVQSGAEVKKPGASVKVSCKASGYTFTAQYMYWVRQAPGQGLEWMGRINPTSGNTVYAQKLQGRVTMTRDTSTSTVYMELSSLRSEDTAVYYCARGINWFDPWGQGTLVTVSS
VL: DIQMTQSPSSLSASVGDRVTITCRASQNIDTYVNWYQQKPGKAPKLLIYAASRLHTVPSRFSGSGSGTDFTLTISSLQPEDFATYYCQQSYTSPFTFGGGTKVEIK
notes: 3F2 VH with 49A2 VL
With B2, in experiment [12], the affinity, expressed as Kd, was 0.015 nM. For the same molecule, the EC50 in experiment [13] was 0.056 nM; in experiment [18], 0.79 nM. Moreover, the binding result in [14], in [16] and in [17] was “no binding (tested: axis value -8 (labelled log nM))” throughout. For the same molecule, the “EC50 (read off the curve)” value in experiment [15] is around 8 nM.

B3: 3F2/3F2 (antibody, human IgG1, V domains shown)
VH: QVQLVQSGAEVKKPGASVKVSCKASGYTFTAQYMYWVRQAPGQGLEWMGRINPTSGNTVYAQKLQGRVTMTRDTSTSTVYMELSSLRSEDTAVYYCARGINWFDPWGQGTLVTVSS
VL: not shown
In the case of B3, the binding result is “no binding” in experiment [19]; “no binding (tested: axis value -8 (log scale labelled nM))” in the experiment with mouse B7-H4-Fc [20]; “no binding (tested: axis value -7 (log scale labelled nM))” in experiment [21]; “no binding (tested: axis value -8 (labelled log nM))” in [16]; “no binding (tested: axis value -8 (labelled log nM))” in experiment [17]; “no binding (tested: axis value -8 (labelled log nM))” with mouse B7-H4-his. Moreover, the Kd in experiment [12] amounted to 0.0819 nM; with human B7-H4-Fc, 0.0951 nM; with human B7-H4-his it was 0.0849 nM. For the same molecule, the EC50 in experiment [13] is 0.048 nM; in experiment [18] it was 0.84 nM.
